Data taken from patent US20160053011A1 (ABCLON, published 2016).

Assays:
[1] = target: ECD; experiment: ELISA on HER2 ECD, absorbance; antibody concentration not given
[2] = target: T1, HER2-ECD-His protein (human, UniProt P04626 23-652); experiment: SPR (Biacore 3000), antibody captured by anti-human IgG, HER2-ECD-His analyte, 1:1 model
T1 construct: extracellular domain; not shown: His tag
Method: All the experiments were performed using Biacore 3000. First, the goat antibodies to human IgG were immobilized at a concentration of 1000 RU to a CM5 sensor chip via an amine coupling method. […] Before binding to HER2-ECD-His protein, each antibody was bound at a rate of 50 μL/min for 180 seconds, and allowed the buffer to flow thereonto for stabilization purpose. […] The sensor chip was recycled by allowing 10 mM Glycine-HCl (pH 1.5) buffer to flow thereonto. All the sensorgram data was analyzed via a 1:1 interaction model using BIAevaluation software.

[3] = target: T2, Domain1 (human, UniProt P04626); experiment: ELISA on HER2 sub-domain Fc fusions, absorbance; antibody concentration not given
T2 construct: single sub-domain of the extracellular domain; produced in animal cells, purified with Protein-A; also called HER2 sub-domain 1 with hinge region and Fc region of human IgG1

[4] = target: T3, Domain2 (human, UniProt P04626); experiment: as above
T3 construct: single sub-domain of the extracellular domain; produced in animal cells, purified with Protein-A; also called HER2 sub-domain 2 with hinge region and Fc region of human IgG1

[5] = target: T4, Domain3 (human, UniProt P04626); experiment: as above
T4 construct: single sub-domain of the extracellular domain; produced in animal cells, purified with Protein-A; also called HER2 sub-domain 3 with hinge region and Fc region of human IgG1

[6] = target: T5, Mouse (mouse, UniProt P70424); experiment: ELISA on HER2 extracellular domains of five species, absorbance; antibody concentration not given
T5 construct: extracellular domain; also called HER2 extracellular domain of a mouse (Sino Biological Inc., #50714-M08H); mouse HER2

[7] = target: T6, Rat (rat, UniProt P06494); experiment: as above
T6 construct: extracellular domain; also called HER2 extracellular domain of a rat (Sino Biological Inc., #80079-R08H); rat HER2

[8] = target: T7, HER2 extracellular domain of a rhesus monkey (Sino Biological Inc., #90020-K08H) (rhesus monkey, UniProt I0FM22 23-652); experiment: as above
T7 construct: extracellular domain; Purchased; also called rhesus monkey HER2

[9] = target: T8, EGFR-ECD-Fc (human, UniProt P00533 25-645); experiment: ELISA on extracellular domains of ErbB family proteins, absorbance; antibody concentration not given
T8 construct: extracellular domain; Produced in the same manner as HER2-ECD-Fc; not shown: hinge region of human IgG1 and Fc portion (CH2-CH3), as in HER2-ECD-Fc

[10] = target: T9, HER3 extracellular domain (R&D Systems, #348-RB-050) (human, UniProt P21860 20-643); experiment: as above
T9 construct: extracellular domain; Purchased

[11] = target: T10, HER4 extracellular domain (R&D Systems, #1131-ER-050) (human, UniProt Q15303 26-651); experiment: as above
T10 construct: extracellular domain; Purchased
T10 sequence (looked up): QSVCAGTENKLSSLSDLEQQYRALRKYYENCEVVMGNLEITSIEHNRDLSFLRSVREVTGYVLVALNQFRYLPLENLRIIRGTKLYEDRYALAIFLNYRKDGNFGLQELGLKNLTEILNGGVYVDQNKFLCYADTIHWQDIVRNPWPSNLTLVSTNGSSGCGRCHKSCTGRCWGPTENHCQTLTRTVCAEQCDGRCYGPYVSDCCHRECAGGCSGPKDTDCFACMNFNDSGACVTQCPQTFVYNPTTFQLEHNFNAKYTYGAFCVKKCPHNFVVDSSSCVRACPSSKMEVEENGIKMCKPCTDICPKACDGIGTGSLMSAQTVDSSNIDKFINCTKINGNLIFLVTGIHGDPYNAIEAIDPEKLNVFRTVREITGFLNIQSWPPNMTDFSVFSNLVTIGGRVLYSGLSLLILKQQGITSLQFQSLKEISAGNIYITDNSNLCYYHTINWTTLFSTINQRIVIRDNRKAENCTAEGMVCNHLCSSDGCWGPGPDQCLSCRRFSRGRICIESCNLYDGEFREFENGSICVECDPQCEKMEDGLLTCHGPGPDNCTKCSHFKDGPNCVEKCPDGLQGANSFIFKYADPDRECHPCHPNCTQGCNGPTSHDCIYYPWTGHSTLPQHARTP

T6 sequence (P06494 23-654): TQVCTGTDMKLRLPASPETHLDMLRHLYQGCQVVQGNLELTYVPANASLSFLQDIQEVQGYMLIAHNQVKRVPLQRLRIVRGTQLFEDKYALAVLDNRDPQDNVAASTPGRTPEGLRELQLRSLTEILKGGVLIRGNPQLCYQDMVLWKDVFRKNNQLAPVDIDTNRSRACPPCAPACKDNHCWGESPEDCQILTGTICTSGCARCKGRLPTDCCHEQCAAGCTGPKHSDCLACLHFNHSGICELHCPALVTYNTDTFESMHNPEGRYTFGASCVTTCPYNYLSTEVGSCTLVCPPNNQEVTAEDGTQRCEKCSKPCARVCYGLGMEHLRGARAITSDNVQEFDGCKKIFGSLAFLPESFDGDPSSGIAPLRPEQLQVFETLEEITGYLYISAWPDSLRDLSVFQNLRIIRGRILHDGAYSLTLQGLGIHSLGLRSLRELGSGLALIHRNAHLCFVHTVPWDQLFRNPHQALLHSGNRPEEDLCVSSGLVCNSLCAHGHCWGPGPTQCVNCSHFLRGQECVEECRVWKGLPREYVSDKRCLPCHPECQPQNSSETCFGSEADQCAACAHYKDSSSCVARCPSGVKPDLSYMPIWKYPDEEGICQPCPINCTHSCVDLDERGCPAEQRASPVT
T5 sequence (P70424 23-653): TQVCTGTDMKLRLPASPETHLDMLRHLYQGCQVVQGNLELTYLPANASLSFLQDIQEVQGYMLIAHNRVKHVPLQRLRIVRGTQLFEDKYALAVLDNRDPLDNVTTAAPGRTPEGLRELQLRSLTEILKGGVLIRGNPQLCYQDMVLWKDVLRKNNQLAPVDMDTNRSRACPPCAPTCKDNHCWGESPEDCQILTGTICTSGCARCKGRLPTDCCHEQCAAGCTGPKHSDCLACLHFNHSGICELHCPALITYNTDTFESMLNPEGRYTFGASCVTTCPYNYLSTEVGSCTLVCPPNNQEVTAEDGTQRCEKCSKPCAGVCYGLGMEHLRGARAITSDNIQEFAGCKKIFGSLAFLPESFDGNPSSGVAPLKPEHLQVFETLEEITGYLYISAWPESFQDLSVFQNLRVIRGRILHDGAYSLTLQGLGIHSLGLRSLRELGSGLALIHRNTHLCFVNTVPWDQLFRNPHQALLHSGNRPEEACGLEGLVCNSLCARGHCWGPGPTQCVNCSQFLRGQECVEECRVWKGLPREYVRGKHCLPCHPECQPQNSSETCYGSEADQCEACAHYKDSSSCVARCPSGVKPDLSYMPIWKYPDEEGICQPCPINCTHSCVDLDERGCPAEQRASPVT

B1: 1E11 antibody (antibody, V domains shown)
VH: EVKLVESGGGLVQPGGSLKLSCAASGFTFSSYTMSWVRQTPEKRLEWVAYISNGGGSTYYPDTVKGRFTISRDNAKNTLYLQMSSLKSEDTAMYYCARHLGGTASFDYWGQGTTVTVSS
VL: DIQMTQSPASQSASLGESVTITCLASQTIGTWLAWYQQKPGKSPQLLIYVATSLADGVPSRFSGSGSGTKFSFKISSLQAEDFVSYYCQQLYSTPWTFGGGTKLELK
notes: Mouse variable regions; also called 1E11 clones; chimeric 1E11
**Q.** Does B1 bind [1]?
**A.** binds

**Q.** What about the Kd [2] of the same binder?
**A.** 16 nM

**Q.** And the koff [2]?
**A.** 0.00047 s⁻¹

**Q.** And the kon [2]?
**A.** 30000 M⁻¹ s⁻¹

**Q.** Does B1 bind [3]?
**A.** no binding

**Q.** Does B1 bind [4]?
**A.** no binding

**Q.** Does B1 bind [5]?
**A.** no binding

**Q.** Does B1 bind [6]?
**A.** no binding

**Q.** Does B1 bind [7]?
**A.** no binding

**Q.** Does B1 bind [8]?
**A.** binds

**Q.** Does B1 bind [9]?
**A.** no binding

**Q.** Does B1 bind [10]?
**A.** no binding

**Q.** Does B1 bind [11]?
**A.** no binding
